# From PMC3161730 (2012)
# Where two headings read alike, the source gives them in different places.
# B1: BDNF (protein)
# chain: HSDPARRGELSVCDSISEWVTAADKKTAVDMSGGTVTVLEKVPVSKGQLKQYFYETKCNPMGYTKEGCRGIDKRHWNSQCRTTQSYVRALTMDSKKRIGWRFIRIDTSCVCTLTIKRGR
# Experiments:
# Assay in all cases: plate-based fluorescence binding assay
# [1] = target: T1, TrkB (Rattus norvegicus, UniProt Q63604)
# T1 chain: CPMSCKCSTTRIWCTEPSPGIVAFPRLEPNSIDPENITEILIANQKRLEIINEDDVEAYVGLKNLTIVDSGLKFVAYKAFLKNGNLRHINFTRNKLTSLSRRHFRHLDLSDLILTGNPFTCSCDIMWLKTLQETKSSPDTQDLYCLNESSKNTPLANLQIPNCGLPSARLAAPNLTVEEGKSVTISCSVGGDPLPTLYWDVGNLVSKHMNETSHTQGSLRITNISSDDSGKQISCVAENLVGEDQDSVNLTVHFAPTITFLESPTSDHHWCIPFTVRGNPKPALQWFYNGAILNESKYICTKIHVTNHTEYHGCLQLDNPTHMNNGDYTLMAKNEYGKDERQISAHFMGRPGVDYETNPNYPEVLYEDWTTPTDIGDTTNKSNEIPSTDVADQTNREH
# [2] = target: T1, TrkB
# [3] = target: T1, TrkB
# [4] = target: T1, TrkB
binder,measurement,setting,value
B1,Kd,[1],3.37 nM
same,Kd,[2],0.11 pM
same,Kd,[3],0.53 nM
same,Kd,[4],1.79 pM
